B1: anti-FXI/FXIa antibody NOV1401 (antibody, human IgG1, lambda, V domains shown)
VH: QVQLLESGGGLVQPGGSLRLSCAASGFTFSTAAMSWVRQAPGKGLEWVSGISGSGSSTYYADSVKGRFTISRDNSKNTLYLQMNSLRAEDTAVYYCARELSYLYSGYYFDYWGQGTLVTVSS
VL: QSVLTQPPSASGTPGQRVTISCSGSSSNIGSNDVSWYQQLPGTAPKLLIYKNYNRPSGVPDRFSGSKSGTSASLAISGLQSEDEADYYCSAWDQRQFDVVFGGGTKLTVLG

Tests used:
[1] = target: B1; assay: solution equilibrium titration (SET), constant Fab with NOV1401 titrated in solution, free Fab captured on biotinylated NOV1401, 1:1 fit; average of n=2
Experimental: (§1) After washing the plate again three times, 30 μl of detection reagent (LumiGLO Peroxidase Chemiluminescent Substrate, KPL#54-61-01) was added to each well. Electrochemiluminescence (ECL) signals were generated and detected immediately with a luminescence imager (SpectraMax M5, Molecular Devices, LLC).
(§2) Average ECL-signals were calculated from duplicate measurements within each assay. Data were baseline adjusted by subtracting the lowest value from all data points and plotted against the corresponding antigen concentration.

[2] = target: B1; assay: cell-based or functional assay
[3] = target: B1; assay: cell-based or functional assay; remark: listed apart in the source
[4] = target: B1; assay: SPR (ProteOn XPR36), NOV1401 amine-coupled on the chip, Fab as analyte 0.125-4 nM, Langmuir 1:1 fit, 25 C; average of n=2
Experimental: SPR binding experiments were performed on a ProteOn XPR36 instrument (Bio-Rad Laboratories, Inc.) in PBS/T buffer (50 mM phosphate, 150 mM NaCl, pH 7.4, 0.005% v/v Tween-20) at 25° C. […] Unreacted groups were blocked by injecting 1 M ethanolamine.
Blank surfaces were used for background corrections. There was no need to regenerate surfaces since the ProteOn protein interaction array system allows to run up to six binding experiments on an identical surface in parallel.
Data processing and analysis including kon, koff, and KD determination were performed with the ProteOn Manager™ software version 3.1.0.6. Sensorgrams were fitted by applying a Langmuir 1:1 binding model (Rmax set at global) and dissociation constants were calculated from kon and koff.

[5] = target: B1; assay: Solution equilibrium titration (SET): constant Fab, NOV1401 titrated in solution, free Fab captured on biotinylated NOV1401, luminescence (RLU) read, 1:1 fit
Experimental: as §1, §2

[6] = target: B1; assay: solution equilibrium titration (SET), constant Fab with NOV1401 titrated in solution, free Fab captured on biotinylated NOV1401, 1:1 fit; average of n=3
Experimental: as §1, §2

[7] = target: Human FXI in normal human plasma (human, UniProt P03951 19-625); assay: cell-based or functional assay
Human FXI in normal human plasma, sequence (P03951 19-625 C226S limits assumed): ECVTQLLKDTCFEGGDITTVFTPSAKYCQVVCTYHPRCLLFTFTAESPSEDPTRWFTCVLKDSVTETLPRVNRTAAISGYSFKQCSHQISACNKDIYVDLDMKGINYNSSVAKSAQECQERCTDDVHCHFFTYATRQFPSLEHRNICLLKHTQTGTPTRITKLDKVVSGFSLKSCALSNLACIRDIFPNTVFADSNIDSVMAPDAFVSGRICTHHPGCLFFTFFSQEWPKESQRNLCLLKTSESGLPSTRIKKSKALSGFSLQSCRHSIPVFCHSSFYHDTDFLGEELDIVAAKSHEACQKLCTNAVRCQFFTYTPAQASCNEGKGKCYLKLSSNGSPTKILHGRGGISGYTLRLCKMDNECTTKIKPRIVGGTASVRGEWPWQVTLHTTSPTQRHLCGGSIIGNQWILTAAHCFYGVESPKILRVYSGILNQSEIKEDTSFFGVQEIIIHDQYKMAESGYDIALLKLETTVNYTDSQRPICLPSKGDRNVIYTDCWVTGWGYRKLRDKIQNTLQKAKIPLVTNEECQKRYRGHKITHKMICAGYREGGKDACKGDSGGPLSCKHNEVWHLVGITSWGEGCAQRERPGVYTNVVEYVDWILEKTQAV

Binder	Kd [1] [nM]	percentage reversal of NOV1401 aPTT prolongation, NOV1401/anti NOV1401 ratio 1/1 (n/n) [2] [%]	percentage reversal of NOV1401 aPTT prolongation, NOV1401/anti NOV1401 ratio 1/3 (n/n) [2] [%]	percentage reversal of NOV1401 aPTT prolongation, NOV1401/anti NOV1401 ratio 1/10 (n/n) [2] [%]	percentage reversal of the NOV1401 effect on thrombin generation (TGA), NOV1401/anti NOV1401 ratio 1/1 (n/n) [3] [%]	percentage reversal of the NOV1401 effect on thrombin generation (TGA), NOV1401/anti NOV1401 ratio 1/3 (n/n) [3] [%]	percentage reversal of the NOV1401 effect on thrombin generation (TGA), NOV1401/anti NOV1401 ratio 1/10 (n/n) [3] [%]	Kd [4] [nM]	Kd [5] [nM]	Kd [6] [nM]	IC50 of NOV1401 for reduction of peak thrombin in the TGA in human plasma [7] [nM]
IDT10 anti-NOV1401 Fab (Fab, V domains shown, Human Fab; The heavy chain entry is VH-CH1 (Fd); also called antidote) VH: QVQLVQSGAEVKKPGASVKVSCKASGYTFTNYYVHWVRQAPGQGLEWMGWINPYSGNTNYAQKFQGRVTMTRDTSISTAYMELSRLRSEDTAVYYCARGASSIRMSYYLDVWGQGTLVTVSS VL: DIQMTQSPSSLSASVGDRVTITCRASQSISNYLNWYQQKPGKAPKLLIYAASNLQSGVPSRFSGSGSGTDFTLTISSLQPEDFATYYCFQYTHSPATFGQGTKVEIKR	1.19	12	25	40	37	45	57	5.97			
IDT8 anti-NOV1401 Fab (Fab, V domains shown, Human Fab; The heavy chain entry is VH-CH1 (Fd); also called antidote) VH: QVQLVESGGGLVKPGGSLRLSCAASGFTFSSNAMHWVRQAPGKGLEWVGRIKSKTSGGTTDYAAPVKGRFTISRDDSKNTLYLQMNSLKTEDTAVYYCARDHYYYPFAYWGQGTLVTVSS VL: DIQMTQSPSSLSASVGDRVTITCRASQSIRYNLAWYQQKPGKAPKLLIYAASSLQSGVPSRFSGSGSGTDFTLTISSLQPEDFATYYCHQYIAKPITFGQGTKVEIKR		8	25	42	41	56	69	2.15	0.96	0.16	
IDT6 anti-NOV1401 Fab (Fab, V domains shown, Human Fab with a lambda light chain; The heavy chain entry is VH-CH1 (Fd); also called antidote) VH: QVQLVQSGAEVKKPGESLKISCKGSGYSFTNYWIGWVRQMPGKGLEWMGIIFPGVSYTKYSPSFQGQVTISADKSISTAYLQWSSLKASDTAMYYCARGSDQTLRGSRAMDYWGQGTLVTVSS VL: QSALTQPASVSGSPGQSITISCTGTSSDVGISNYVSWYQQHPGKAPKLMIYEVSNRPSGVSNRFSGSKSGNTASLTISGLQAEDEADYYCQSYTSLNYVFGGGTKLTVLG		9	22	38	18	41	37	10.1			
IDT1 anti-NOV1401 Fab (Fab, V domains shown, The heavy chain entry is VH-CH1 (Fd); also called antidote) VH: QVQLLESGGGLVQPGGSLRLSCAASGFTFSDYAMSWVRQAPGKGLEWVSVIDYSSSNTYYADSVKGRFTISRDNSKNTLYLQMNSLRAEDTAVYYCAREGYSYRSIRFDYWGQGTLVTVSS VL: DIQMTQSPSSLSASVGDRVTITCRASQSISSNLNWYQQKPGKAPKLLIYAASNLQSGVPSRFSGSGSGTDFTLTISSLQPEDFATYYCLQFDHTPFTFGQGTKVEIKR	0.11	12	45	64	49	55	55	0.44			
B1											50

Source: patent US20200317816A1 (Novartis, published 2020)
